This passage reports stoichiometry N results from paper PMC6443839.

The assay addresses amyloid-β protein (Aβ) produced from human APP770 bearing the Swedish mutation (APPswe) in rat hippocampal neurons (human). The experiment in a line: SDS-PAGE with western blot. (A western blot detects proteins with antibodies after separation by electrophoresis.)

On to “amyloid-β protein (Aβ) produced from human APP770 bearing the Swedish mutation (APPswe) in rat hippocampal neurons (peptide)”, for which the stoichiometry N was 3.

In general, stoichiometry N refers to the number of molecules, sites or subunits per partner or assembly.
